The series deals with the molecule itself. Briefly: SEC; Superdex 200 Increase 10/300; 100 mM Tris-HCl pH 8.5, 150 mM NaCl, 1 mM DTT, 5% glycerol; 0.4 mL/min; His-tag fusion proteins.

B1: 6His-AtFH2-FH2 (domain or fragment, Arabidopsis thaliana, UniProt O22824 438-864, looked up)
chain: EKKVETMKPKLKTLHWDKVRASSSRVMVWDQIKSNSFQVNEEMIETLFKVNDPTSRTRDGVVQSVSQENRFLDPRKSHNIAILLRALNVTADEVCEALIEGNSDTLGPELLECLLKMAPTKEEEDKLKELKDDDDGSPSKIGPAEKFLKALLNIPFAFKRIDAMLYIVKFESEIEYLNRSFDTLEAATGELKNTRMFLKLLEAVLKTGNRMNIGTNRGDAHAFKLDTLLKLVDIKGADGKTTLLHFVVQEIIKFEGARVPFTPSQSHIGDNMAEQSAFQDDLELKKLGLQVVSGLSSQLINVKKAAAMDSNSLINETAEIARGIAKVKEVITELKQETGVERFLESMNSFLNKGEKEITELQSHGDNVMKMVKEVTEYFHGNSETHPFRIFAVVRDFLTILDQVCKEVGRVNERTVYGSMPLHSPSN
notes: Arabidopsis thaliana Formin 2 (AtFH2, At2g43800), FH2 domain; cloned in pET23a; Mainly a dimer by size exclusion chromatography (about 100 kDa); source: E. coli Tuner (DE3) pLysS, purified (Ni-NTA)
A word on the stoichiometry N: it is a count of units in the complex or per binding partner. Consider B1, for which the “stoichiometry N” value was found to be 2.

These data come from paper PMC6126924, “Arabidopsis formin 2 regulates cell-to-cell trafficking by capping and stabilizing actin filaments at plasmodesmata” (eLife, 2018).
